Results taken from article PMC5650471.

Target: wild-type human ADORA2A adenosine A2A receptor (construct terminated at residue 316, N154Q, C-terminal 8x His and Protein C tags) (human) (UniProt P29274)
Chain of UniProt P29274 (P29274 1-316 N154Q): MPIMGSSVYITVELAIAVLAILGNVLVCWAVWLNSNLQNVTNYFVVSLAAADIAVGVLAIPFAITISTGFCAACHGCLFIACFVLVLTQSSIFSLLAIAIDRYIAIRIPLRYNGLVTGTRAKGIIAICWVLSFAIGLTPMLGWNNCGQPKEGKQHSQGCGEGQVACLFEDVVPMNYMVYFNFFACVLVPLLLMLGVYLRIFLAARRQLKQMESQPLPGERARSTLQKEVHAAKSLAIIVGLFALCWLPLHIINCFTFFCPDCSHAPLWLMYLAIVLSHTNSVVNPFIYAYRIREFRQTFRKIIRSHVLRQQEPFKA

With Gs heterotrimer (complex) as the substance, how does the [35S]GTPγS binding to perdeuterated purified A2AR reconstituted with purified Gs heterotrimer in phospholipid vesicles; reduction of basal activity by inverse agonist ZM241385 read?
The [35S]GTPγS binding to perdeuterated purified A2AR reconstituted with purified Gs heterotrimer in phospholipid vesicles; reduction of basal activity by inverse agonist ZM241385 was 50%.

What about the [35S]GTPγS binding to perdeuterated purified A2AR reconstituted with purified Gs heterotrimer in phospholipid vesicles; stimulation by saturating full agonist NECA of the same substance?
The [35S]GTPγS binding to perdeuterated purified A2AR reconstituted with purified Gs heterotrimer in phospholipid vesicles; stimulation by saturating full agonist NECA was 8 fold.
